The data set “MST” deals with the molecule itself. The data set can be described thus: MST.
Another data set concerns the target ΔEspP peptide. The data set can be described thus: dynamic light scattering.
The data set “SEC” concerns the molecule itself. In words: SEC.

“And” between values parts separate entries of the source, which are not always exact repeats. Equal entries are not always repeated.

B1: FITC-labelled human Ire1α luminal domain (aa 24-449) (domain or fragment)
chain: STVTLPETLLFVSTLDGSLHAVSKRTGSIKWTLKEDPVLQVPTHVEEPAFLPDPNDGSLYTLGSKNNEGLTKLPFTIPELVQASPCRSSDGILYMGKKQDIWYVIDLLTGEKQQTLSSAFADSLCPSTSLLYLGRTEYTITMYDTKTRELRWNATYFDYAASLPEDDVDYKMSHFVSNGDGLVVTVDSESGDVLWIQNYASPVVAFYVWQREGLRKVMHINVAVETLRYLTFMSGEVGRITKWKYPFPKETEAKSKLTPTLYVGKYSTSLYASPSMVHEGVAVVPRGSTLPLLEGPQTDGVTIGDKGECVITPSTDVKFDPGLKSKNKLNYLRNYWLLIGHHETPLSASTKMLERFPNNLPKHRENVIPADSEKKSFEEVINLVDQTSENAPTTVSRDVEEKPAHAPARPEAPVDSMLKDMATIIL
modifications: FITC label (site not stated)
Take B1: the Kd in the data set “MST” is 500 nM.

B2: human Ire1α luminal domain (aa 24-449), wild type (domain or fragment)
chain: STVTLPETLLFVSTLDGSLHAVSKRTGSIKWTLKEDPVLQVPTHVEEPAFLPDPNDGSLYTLGSKNNEGLTKLPFTIPELVQASPCRSSDGILYMGKKQDIWYVIDLLTGEKQQTLSSAFADSLCPSTSLLYLGRTEYTITMYDTKTRELRWNATYFDYAASLPEDDVDYKMSHFVSNGDGLVVTVDSESGDVLWIQNYASPVVAFYVWQREGLRKVMHINVAVETLRYLTFMSGEVGRITKWKYPFPKETEAKSKLTPTLYVGKYSTSLYASPSMVHEGVAVVPRGSTLPLLEGPQTDGVTIGDKGECVITPSTDVKFDPGLKSKNKLNYLRNYWLLIGHHETPLSASTKMLERFPNNLPKHRENVIPADSEKKSFEEVINLVDQTSENAPTTVSRDVEEKPAHAPARPEAPVDSMLKDMATIIL
As for B2, the binding result with ΔEspP peptide is listed as “binds”. For the same molecule, the “stoichiometry N” value in “SEC” was 2 and 4.
